Results on three proteins are retold here after publication PMC11063116.

Residue numbers refer to the chain shown, from its start. Numbers in names are those of the source.

To fix the notation:
B1: BvHSS (homospermidine synthase) (Blastochloris viridis) (protein)
chain: MTDWPVYHRIDGPIVMIGFGSIGRGTLPLIERHFAFDRSKLVVIDPSDEARKLAEARGVRFIQQAVTRDNYRELLVPLLTAGPGQGFCVNLSVDTSSLDIMELARENGALYIDTVVEPWLGFYFDPDLKPEARSNYALRETVLAARRNKPGGTTAVSCCGANPGMVSWFVKQALVNLAADLGVTGEEPTTREEWARLAMDLGVKGIHIAERDTQRASFPKPFDVFVNTWSVEGFVSEGLQPAELGWGTFERWMPDNARGHDSGCGAGIYLLQPGANTRVRSWTPTAMAQYGFLVTHNESISIADFLTVRDAAGQAVYRPTCHYAYHPCNDAVLSLHEMFGSGKRQSDWRILDETEIVDGIDELGVLLYGHGKNAYWYGSQLSIEETRRIAPDQNATGLQVSSAVLAGMVWALENPNAGIVEADDLDFRRCLEVQTPYLGPVVGVYTDWTPLAGRPGLFPEDIDTSDPWQFRNVLVRD
B2: BvHSS (homospermidine synthase) (Blastochloris viridis; D361E/E232D) (protein)
chain: B1 chain with E232D, D361E
B3: BvHSS (homospermidine synthase) (Blastochloris viridis; D361E) (protein)
chain: B1 chain with D361E

Substrate in this data set: NCCCN
Put plainly: purified protein. The settings on record: 2 mM putrescine, 0.6 mM NAD+, 100 mM Tris-HCl pH 9, 50 °C.
One may read the Km as the concentration of substrate that gives half-maximal velocity. Broadly, the kcat is the maximal rate divided by the concentration of active sites. Usually kcat/Km stands for the second-order rate constant that governs catalysis at low substrate concentration. Regarding B1, the Michaelis-Menten constant (Km) is 490 ± 30 µM, the catalytic constant (kcat) is 13.6 s⁻¹ and the kcat/Km was determined as 27800 M⁻¹ s⁻¹.

With B2, the Michaelis-Menten constant (Km) was 310 ± 20 µM, the kcat was found to be 21.1 s⁻¹ and the kcat/Km was 68000 M⁻¹ s⁻¹.

Take B3: the Km is 430 ± 60 µM, the catalytic constant (kcat) was determined as 19.3 s⁻¹ and the kcat/Km was determined as 45000 M⁻¹ s⁻¹.
